In patent CN116472284A:

B1: Nb6 (VHH)
VHH: QVQLVESGGGLVQAGGSLRLSCAASGIIFGRNAMGWYRQAPGKERELVAGITRRGSITYYADSVKGRFTISRDNAKNTVYLQMNSLKPEDTAVYYCAADPASPAPGDYWGQGTQVTVSS
B2: Nb6-bi (bivalent Nb6 with a 15 amino acid linker) (VHH)
chain: QVQLVESGGGLVQAGGSLRLSCAASGIIFGRNAMGWYRQAPGKERELVAGITRRGSITYYADSVKGRFTISRDNAKNTVYLQMNSLKPEDTAVYYCAADPASPAPGDYWGQGTQVTVSSGGGGSGGGGSGGGGSQVQLVESGGGLVQAGGSLRLSCAASGIIFGRNAMGWYRQAPGKERELVAGITRRGSITYYADSVKGRFTISRDNAKNTVYLQMNSLKPEDTAVYYCAADPASPAPGDYWGQGTQVTVSS

Assays:
[1] = target: SARS-CoV-2 spike ectodomain, prefusion-stabilised trimer (刺突 S2P) (SARS-CoV-2)
[2] = target: SARS-CoV-2 spike ectodomain, prefusion-stabilised trimer (刺突 S2P) (SARS-CoV-2); remark: listed apart in the source
[3] = target: SARS-CoV-2 spike ectodomain, prefusion-stabilised trimer (刺突 S2P) (SARS-CoV-2); assay: SPR, captured spike S2P
[4] = target: SARS-CoV-2 spike ectodomain, prefusion-stabilised trimer (刺突 S2P) (SARS-CoV-2); assay: binding kinetics (SPR), Fig. 6A
[5] = target: SARS-CoV-2 spike ectodomain, prefusion-stabilised trimer (刺突 S2P) (SARS-CoV-2); assay: SPR, captured spike S2P, biphasic dissociation, fast phase kd1
[6] = target: SARS-CoV-2 spike ectodomain, prefusion-stabilised trimer (刺突 S2P) (SARS-CoV-2); assay: SPR, captured spike S2P, biphasic dissociation, slow phase kd2

Binder | EC50 [1] | IC50 [2] | Kd [3] | koff [3] | Kd [4] | fold gain in KD against monovalent Nb6 [3] | koff [5] | koff [6]
B1 | 359 nM | 370 nM | 210 nM | 0.056 s⁻¹ | 210 nM |  |  | 
B2 |  |  |  |  |  | 750 fold | 0.027 s⁻¹ | 0.00031 s⁻¹
